Data: patent publication US20090275511A1 (IPSEN PHARMA S A S, published 2009)
Numbered stars: 1 amine (or outer) side, 2 acyl side, 3 side chain; on linkers, the order of the positions; unused ones are H or OH. Square brackets hold non-standard residues; d marks the D form. Glu(NH-hexyl) = N5-hexyl-L-glutamine (glutamic acid gamma-hexylamide), CCCCCCNC(=O)CC[C@H](N[*:1])C(=O)[*:2]; 1‑Apc = not defined here; Aib = CC(C)(N)C(=O)O

Biological target: T1, human GH secretagogue receptor (human, UniProt Q92847 1-366)
T1 construct: whole, on cells; the Ca2+ assay used the whole cells; also called hGHS-R; ghrelin receptor
T1 sequence (Q92847 whole entry): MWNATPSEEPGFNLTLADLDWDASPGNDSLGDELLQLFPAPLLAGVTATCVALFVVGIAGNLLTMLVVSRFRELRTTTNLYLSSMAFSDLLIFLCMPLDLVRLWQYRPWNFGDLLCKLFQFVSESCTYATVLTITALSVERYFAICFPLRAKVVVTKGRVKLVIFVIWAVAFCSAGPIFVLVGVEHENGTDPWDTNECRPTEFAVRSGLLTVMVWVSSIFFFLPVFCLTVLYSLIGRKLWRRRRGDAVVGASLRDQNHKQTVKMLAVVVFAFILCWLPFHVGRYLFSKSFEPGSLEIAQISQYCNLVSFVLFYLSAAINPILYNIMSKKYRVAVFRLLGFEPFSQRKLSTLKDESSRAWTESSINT
Assay: competition with 0.05 nM (125I)ghrelin on membranes of CHO-K1 cells expressing hGHS-R, filtration
Method: The homogenates were washed twice by centrifugation (39,000 g/10 minutes) and the final pellets were resuspended in about 50 mM Tris-HCl containing 2.5 mM MgCl₂ and 0.1% bovine serum albumin (BSA). For the selected assay, aliquots of approximately 0.4 ml were incubated with 0.05 nM (¹²⁵I)ghrelin (˜2000 Ci/mmol; Perkin Elmer Life Sciences®, Boston, Mass., U.S.A.) with and without 0.05 ml of unlabeled competing test peptide.

B1: (Ac-1-Apc^1, Aib^2,10, Glu(NH-hexyl)^3)hGhrelin(1-28)-NH2 (peptide)
peptide: Ac-[1‑Apc][Aib][Glu(NH-hexyl)]FLSPEH[Aib]RVQQRKESKKPPAKLQPR-NH2
modifications: reading uncertain
notes: Synthetic analog of human ghrelin(1-28)
  Ki: 40 nM

B2: (Ac-Inp^1, Aib^2,10, Glu(NH-hexyl)^3)hGhrelin(1-28)-NH2 (peptide)
peptide: XXEFLSPEHXRVQQRKESKKPPAKLQPR
HELM: PEPTIDE1{[ac].[O=C(C1CCN([*:1])CC1)[*:2]].[Aib].[CCCCCCNC(=O)CC[C@H](N[*:1])C(=O)[*:2]].F.L.S.P.E.H.[Aib].R.V.Q.Q.R.K.E.S.K.K.P.P.A.K.L.Q.P.R.[am]}$$$$V2.0
SMILES: CCCCCCNC(=O)CC[C@H](NC(=O)C(C)(C)NC(=O)C1CCN(C(C)=O)CC1)C(=O)N[C@@H](Cc1ccccc1)C(=O)N[C@@H](CC(C)C)C(=O)N[C@@H](CO)C(=O)N1CCC[C@H]1C(=O)N[C@@H](CCC(=O)O)C(=O)N[C@@H](Cc1c[nH]cn1)C(=O)NC(C)(C)C(=O)N[C@@H](CCCNC(=N)N)C(=O)N[C@H](C(=O)N[C@@H](CCC(N)=O)C(=O)N[C@@H](CCC(N)=O)C(=O)N[C@@H](CCCNC(=N)N)C(=O)N[C@@H](CCCCN)C(=O)N[C@@H](CCC(=O)O)C(=O)N[C@@H](CO)C(=O)N[C@@H](CCCCN)C(=O)N[C@@H](CCCCN)C(=O)N1CCC[C@H]1C(=O)N1CCC[C@H]1C(=O)N[C@@H](C)C(=O)N[C@@H](CCCCN)C(=O)N[C@@H](CC(C)C)C(=O)N[C@@H](CCC(N)=O)C(=O)N1CCC[C@H]1C(=O)N[C@@H](CCCNC(=N)N)C(N)=O)C(C)C
notes: as for B1
  Ki: 370 nM
